{"source": "patent US20110311550A1", "about": "(Scripps Research, published 2011)", "binders": {"B1": {"name": "N4 IgG (antibody, V domains shown)", "VH": "VQLLEQSGPEVKKPGDSLRISCKMSGDSLVTTWIGWVRQKPGQGLEWMGIINPGDSSTNIYPGDSATRYGPSFQGQVTISIDKSTSTAYLQWNNVKASDTGIYYCARHVPVPISGTFLWREREMHDFGYFDDWGQGTLVIVSS", "VL": "ELTLTQSPGTLSLSPGERATLSCRASQSVSNNYLAWYQQKPGQAPRLLIYGASSRATGIPDRFSGSGSGTGFTLIISRLEPEDFAVYYCQQYGSSSITFGQGTRLEIKR", "notes": "also called IgG N4"}}, "test_in_all_cases": "ELISA, lectin-captured E1E2 lysate, Ab 1 ug/ml", "key": {"[1]": {"biological_target": "E1E2 complex (H77) with E1 mutation N196A (HCV genotype 1a, isolate H77, UniProt P27958 192-383; P27958 384-746)"}, "[2]": {"biological_target": "E1E2 complex (H77) with E1 mutation Y201A (HCV genotype 1a, isolate H77, UniProt P27958 192-383; P27958 384-746)"}, "[3]": {"biological_target": "E1E2 complex (H77) with E1 mutation N205A (HCV genotype 1a, isolate H77, UniProt P27958 192-383; P27958 384-746)"}, "[4]": {"biological_target": "E1E2 complex (H77) with E1 mutation P224A (HCV genotype 1a, isolate H77, UniProt P27958 192-383; P27958 384-746)"}, "[5]": {"biological_target": "E1E2 complex (H77) with E1 mutation R259A (HCV genotype 1a, isolate H77, UniProt P27958 192-383; P27958 384-746)"}, "[6]": {"biological_target": "E1E2 complex (H77) with E1 mutation G278A (HCV genotype 1a, isolate H77, UniProt P27958 192-383; P27958 384-746)"}, "[7]": {"biological_target": "E1E2 complex (H77) with E1 mutation Q289A (HCV genotype 1a, isolate H77, UniProt P27958 192-383; P27958 384-746)"}, "[8]": {"biological_target": "E1E2 complex (H77) with E1 mutation Q302A (HCV genotype 1a, isolate H77, UniProt P27958 192-383; P27958 384-746)"}, "[9]": {"biological_target": "E1E2 complex (H77) with E1 mutation H316A (HCV genotype 1a, isolate H77, UniProt P27958 192-383; P27958 384-746)"}, "[10]": {"biological_target": "E1E2 complex (H77) with E1 mutation M318A (HCV genotype 1a, isolate H77, UniProt P27958 192-383; P27958 384-746)"}, "[11]": {"biological_target": "E1E2 complex (H77) with E1 mutation G354A (HCV genotype 1a, isolate H77, UniProt P27958 192-383; P27958 384-746)"}, "[12]": {"biological_target": "E1E2 complex (H77) with E2 mutation N623A (HCV genotype 1a, isolate H77, UniProt P27958 192-383; P27958 384-746)"}, "[13]": {"biological_target": "E1E2 complex (H77) with E2 mutation Y624A (HCV genotype 1a, isolate H77, UniProt P27958 192-383; P27958 384-746)"}, "[14]": {"biological_target": "E1E2 complex (H77) with E2 mutation R630A (HCV genotype 1a, isolate H77, UniProt P27958 192-383; P27958 384-746)"}, "[15]": {"biological_target": "E1E2 complex (H77) with E2 mutation E637A (HCV genotype 1a, isolate H77, UniProt P27958 192-383; P27958 384-746)"}, "[16]": {"biological_target": "E1E2 complex (H77) with E2 mutation A643G (HCV genotype 1a, isolate H77, UniProt P27958 192-383; P27958 384-746)"}, "[17]": {"biological_target": "E1E2 complex (H77) with E2 mutation N428A (HCV genotype 1a, isolate H77, UniProt P27958 192-383; P27958 384-746)"}, "[18]": {"biological_target": "E1E2 complex (H77) with E2 mutation T435A (HCV genotype 1a, isolate H77, UniProt P27958 192-383; P27958 384-746)"}, "[19]": {"biological_target": "E1E2 complex (H77) with E2 mutation F447A (HCV genotype 1a, isolate H77, UniProt P27958 192-383; P27958 384-746)"}, "[20]": {"biological_target": "E1E2 complex (H77) with E2 mutation H617A (HCV genotype 1a, isolate H77, UniProt P27958 192-383; P27958 384-746)"}, "[21]": {"biological_target": "E1E2 complex (H77) with E2 mutation Y618A (HCV genotype 1a, isolate H77, UniProt P27958 192-383; P27958 384-746)"}, "[22]": {"biological_target": "E1E2 complex (H77) with E2 mutation P619A (HCV genotype 1a, isolate H77, UniProt P27958 192-383; P27958 384-746)"}}}
{"binder": "B1", "values": [{"measurement": "Binding relative to wt (%)", "setting": "[1]", "value": 52, "unit": "%"}, {"measurement": "Binding relative to wt (%)", "setting": "[2]", "value": 7, "unit": "%"}, {"measurement": "Binding relative to wt (%)", "setting": "[3]", "value": 3, "unit": "%"}, {"measurement": "Binding relative to wt (%)", "setting": "[4]", "value": 104, "unit": "%"}, {"measurement": "Binding relative to wt (%)", "setting": "[5]", "value": 102, "unit": "%"}, {"measurement": "Binding relative to wt (%)", "setting": "[6]", "value": 68, "unit": "%"}, {"measurement": "Binding relative to wt (%)", "setting": "[7]", "value": 94, "unit": "%"}, {"measurement": "Binding relative to wt (%)", "setting": "[8]", "value": 6, "unit": "%"}, {"measurement": "Binding relative to wt (%)", "setting": "[9]", "value": 70, "unit": "%"}, {"measurement": "Binding relative to wt (%)", "setting": "[10]", "value": 92, "unit": "%"}, {"measurement": "Binding relative to wt (%)", "setting": "[11]", "value": 90, "unit": "%"}, {"measurement": "Binding relative to wt (%)", "setting": "[12]", "value": 54, "unit": "%"}, {"measurement": "Binding relative to wt (%)", "setting": "[13]", "value": 59, "unit": "%"}, {"measurement": "Binding relative to wt (%)", "setting": "[14]", "value": 115, "unit": "%"}, {"measurement": "Binding relative to wt (%)", "setting": "[15]", "value": 67, "unit": "%"}, {"measurement": "Binding relative to wt (%)", "setting": "[16]", "value": 34, "unit": "%"}, {"measurement": "Binding relative to wt (%)", "setting": "[17]", "value": 98, "unit": "%"}, {"measurement": "Binding relative to wt (%)", "setting": "[18]", "value": 122, "unit": "%"}, {"measurement": "Binding relative to wt (%)", "setting": "[19]", "value": 28, "unit": "%"}, {"measurement": "Binding relative to wt (%)", "setting": "[20]", "value": 21, "unit": "%"}, {"measurement": "Binding relative to wt (%)", "setting": "[21]", "value": 33, "unit": "%"}, {"measurement": "Binding relative to wt (%)", "setting": "[22]", "value": 41, "unit": "%"}]}
